The test concerns the target Human LRP6-Fc (R&D Systems), recombinant human LRP6 containing the complete extracellular domain (human) (UniProt O75581). The test is described as follows: SPR (BIAcore), mAb captured on anti-mouse chip, Fc-antigen injected, 1:1 model. Background: In SPR one partner is held on a chip, and binding of the other changes the refractive index at the surface.

Sequence of Human LRP6-Fc (R&D Systems), recombinant human LRP6 containing the complete extracellular domain (human) (O75581 20-1370 V1062I): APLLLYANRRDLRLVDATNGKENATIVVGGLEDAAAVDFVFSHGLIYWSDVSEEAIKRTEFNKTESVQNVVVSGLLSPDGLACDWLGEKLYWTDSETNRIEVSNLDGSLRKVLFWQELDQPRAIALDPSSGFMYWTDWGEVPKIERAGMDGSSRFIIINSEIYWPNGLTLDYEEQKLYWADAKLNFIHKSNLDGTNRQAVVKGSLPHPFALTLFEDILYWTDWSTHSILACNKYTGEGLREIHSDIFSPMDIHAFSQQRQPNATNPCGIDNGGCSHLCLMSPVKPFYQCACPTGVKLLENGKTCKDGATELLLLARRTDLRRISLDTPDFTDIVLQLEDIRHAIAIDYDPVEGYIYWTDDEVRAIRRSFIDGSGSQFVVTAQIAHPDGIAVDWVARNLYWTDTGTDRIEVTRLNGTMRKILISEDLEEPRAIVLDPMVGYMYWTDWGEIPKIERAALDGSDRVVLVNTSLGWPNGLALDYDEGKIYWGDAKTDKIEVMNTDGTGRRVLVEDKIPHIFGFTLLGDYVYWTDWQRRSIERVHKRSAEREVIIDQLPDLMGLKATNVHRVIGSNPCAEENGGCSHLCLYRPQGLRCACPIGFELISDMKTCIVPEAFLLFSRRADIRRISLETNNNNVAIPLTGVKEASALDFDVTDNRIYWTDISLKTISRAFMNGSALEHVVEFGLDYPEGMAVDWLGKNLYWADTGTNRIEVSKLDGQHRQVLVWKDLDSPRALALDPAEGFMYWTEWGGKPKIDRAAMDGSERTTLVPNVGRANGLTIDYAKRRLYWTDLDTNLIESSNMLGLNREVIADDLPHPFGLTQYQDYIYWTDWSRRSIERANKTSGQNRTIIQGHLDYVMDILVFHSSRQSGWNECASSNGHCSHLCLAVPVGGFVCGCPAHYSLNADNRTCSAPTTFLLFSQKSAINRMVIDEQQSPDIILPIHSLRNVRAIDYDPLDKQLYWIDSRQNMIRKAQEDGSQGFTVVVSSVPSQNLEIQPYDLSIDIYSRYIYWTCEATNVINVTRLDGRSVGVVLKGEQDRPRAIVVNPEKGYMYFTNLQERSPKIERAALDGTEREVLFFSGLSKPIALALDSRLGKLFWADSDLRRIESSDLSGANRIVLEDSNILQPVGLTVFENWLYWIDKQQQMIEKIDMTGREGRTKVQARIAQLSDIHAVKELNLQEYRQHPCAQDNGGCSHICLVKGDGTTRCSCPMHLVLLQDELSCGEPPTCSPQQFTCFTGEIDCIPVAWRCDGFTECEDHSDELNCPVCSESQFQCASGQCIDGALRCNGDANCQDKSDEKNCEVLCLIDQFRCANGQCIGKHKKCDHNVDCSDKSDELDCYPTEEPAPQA

B1: anti-LRP6 monoclonal antibody 995.5 (antibody, part only; not given: light chain, not determined, V domains shown, part only)
VH: RMKVLSLLYLLTAIPGILSDVQVQESGPGLVKPSQSLSLTCSVTGYSITSGYYWNWIRQFPGNKLEWMGYISYDGRNNYNPSLKNRISITRDTSKNQFFLKLNSVTTEDTATYYCARENSNYPYYYDYWGQGTTLTVSSAKT
In the case of B1, the equilibrium dissociation constant (Kd) came to 1.09 nM, the koff is 4.51e-05 s⁻¹ and the on-rate (kon) amounted to 41400 M⁻¹ s⁻¹.

B2: anti-LRP6 monoclonal antibody 993.9 (antibody, part only; not given: light chain, not determined, V domains shown, part only)
VH: DVQVQESGPGLVKPSQSLSLTCSVTGYSITSGYYWNWIRQFPGNKLEWMGYISYDGRNNYNPSLKNRISITRDTSKNQFFLKLNSVTTEDTATYYCARENSNYPYYYDYWGQGTTLTVSSAKT
B2: the dissociation constant Kd is 2.05 nM, the koff worked out at 5.7e-05 s⁻¹ and the on-rate constant (kon) amounted to 28000 M⁻¹ s⁻¹.

One may read the Kd as the concentration at which binding is half-saturated. In general, koff refers to a measure of how fast the partners let go of each other. Usually kon stands for the second-order rate constant of association.

Source of the values: US20140220040A1.
